# Data as given in PMC10282093, “Structural basis of α1A-adrenergic receptor activation and recognition by an extracellular nanobody” (Nature Communications, 2023).
# Values joined by “and” are separate entries in the source; they are usually repeats but may differ in a detail not shown here. Identical values can stand only once.
# B1: Nb29 (purified nanobody) (VHH)
# VHH: QVQLQESGGGLVQAGGSLRLSCAASGNISAHWKMGWYRQAPGKEREFVAGIGYANTNYADSVKGRFTISRDNAKNTVYLQMNSLKPEDTAVYYCAAYSYYRDHSYWGQGTQVTVSS
# notes: source: E. coli BL21(DE3), periplasmic (pET26b), purified (Ni-NTA, size-exclusion chromatography)
# B2: Nb29: synthetic nanobody (single domain antibody) that binds the extracellular vestibule of α1AAR, preferentially oxymetazoline-bound (antibody, V domains shown)
# VH: B1 VHH
# B3: Nb6: nanobody that engages the ICL3 of the inactive-state κ-opioid receptor (antibody, V domains shown)
# VH: QVQLQESGGGLVQAGESLRLSCAASGTIFRLYDMGWYRRVSGNQRELVASITSGGSTKYGDSVKGRFTISRDNAKNTVYLQMSSLKPEDTAVYYCNAEYRTGIWEELLDGWGQGTQVTVSS
# Assays:
# [1] = target: T1, α1AAR-kOR (Homo sapiens, UniProt P35348, DEL205-275/INS204TLMILRLKSVRLLSGSREKDRNLRRITRLVL/M115W/N13Q/N22Q/N7Q/S113R); test: [3H]prazosin radioligand binding, Sf9 membrane; settings: for [3H]prazosin binding: listed as Tam
# T1 construct: C-terminus truncated human α1AAR (residues 1–370, full length: 466); hemagglutinin signal peptide (N); FLAG (N); 8×His (C); made in house; host or cells: Sf9 insect cells (membranes)
# [2] = target: T2, C-terminus truncated human α1AAR (residues 1-370; N7Q, N13Q, N22Q) (Homo sapiens, UniProt P35348, N7Q | N13Q | N22Q); test: radioligand binding; [3H]prazosin competition binding with Nb29 as competitor, α1AAR in Sf9 membranes; 20 mM Tris-HCl pH 7.5, 100 mM NaCl; 1 h at room temperature; settings: one partner purified
# T2 construct: α1A-adrenergic receptor, human, residues 1-370 (full length: 466); also called α1A-adrenergic receptor; source: Sf9 insect cells (baculovirus); not shown: FLAG, N-terminal, kept
# [3] = target: T2, C-terminus truncated human α1AAR …; test: radioligand binding; [3H]prazosin competition binding with Nb29 as competitor, purified α1AAR bound to M1-Flag affinity resin; 20 mM HEPES pH 7.5, 100 mM NaCl, 0.01% MNG, 0.001% CHS, 2 mM CaCl2; 1 h at room temperature; settings: both partners purified
# [4] = target: T3, α1AAR (Homo sapiens, UniProt P35348, N13Q/N22Q/N7Q); test: On-yeast titration of Nb29 for α1AAR, flow cytometry; assay type: binding
# T3 construct: C-terminus truncated human α1AAR (residues 1–370, full length: 466); hemagglutinin signal peptide (N); 8×His (C); made in house; host or cells: Sf9 insect cells (baculovirus)
# T3 sequence (P35348 1-370 N7Q/N13Q/N22Q): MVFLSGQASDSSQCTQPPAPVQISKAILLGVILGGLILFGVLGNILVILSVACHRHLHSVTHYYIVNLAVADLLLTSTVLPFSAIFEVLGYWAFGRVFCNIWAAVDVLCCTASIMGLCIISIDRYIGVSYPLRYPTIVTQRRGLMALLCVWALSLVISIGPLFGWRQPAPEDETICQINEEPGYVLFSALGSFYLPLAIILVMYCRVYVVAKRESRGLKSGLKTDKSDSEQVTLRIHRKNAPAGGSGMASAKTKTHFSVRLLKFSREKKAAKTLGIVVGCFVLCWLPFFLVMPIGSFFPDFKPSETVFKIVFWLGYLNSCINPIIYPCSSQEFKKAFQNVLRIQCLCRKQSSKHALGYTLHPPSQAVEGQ
# Protocol: Yeast cells were analyzed by Accuri C6 and the ratio of double-positive yeast cells among anti-HA positive cells was calculated.
# [5] = 1 h, read-out: [3H]prazosin binding
# T1 sequence (P35348 with tags, fused parts or gaps with the stated changes limits assumed): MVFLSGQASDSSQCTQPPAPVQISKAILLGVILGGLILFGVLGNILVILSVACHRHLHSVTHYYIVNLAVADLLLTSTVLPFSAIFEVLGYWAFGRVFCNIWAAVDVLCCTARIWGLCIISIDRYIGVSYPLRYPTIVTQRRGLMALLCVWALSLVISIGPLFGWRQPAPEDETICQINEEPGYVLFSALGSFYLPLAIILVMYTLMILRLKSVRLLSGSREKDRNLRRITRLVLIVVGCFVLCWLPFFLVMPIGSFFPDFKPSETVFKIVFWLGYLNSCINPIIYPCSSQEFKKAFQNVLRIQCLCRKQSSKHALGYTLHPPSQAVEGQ
molecule,measurement,setting,value
"Cc1cc(C(C)(C)C)c(O)c(C)c1CC1=NCCN1 [Oxymetazoline, oxymetazoline]",remaining activity at 0.001 µM,[1]; [5],89.3%
same,remaining activity at 0.01 µM,[1]; [5],83.5%
same,remaining activity at 1 µM,[1]; [5],13.3%
"CCOc1ccccc1OCCN[C@H](C)Cc1ccc(OC)c(S(N)(=O)=O)c1 [Tamsulosin, tamsulosin]",[3H]prazosin binding,"[1]; Tam Log[M] -4, + 5 μM Nb6",0.3% and 1.4% and 0.5%
same,[3H]prazosin binding,[1]; Tam Log[M] -4,1.611% and 3.516% and 2.93%
same,[3H]prazosin binding,"[1]; Tam Log[M] -5, + 5 μM Nb6",2.5% and 2.1% and 1.4%
same,[3H]prazosin binding,[1]; Tam Log[M] -5,3.223% and 3.809% and 3.369%
same,[3H]prazosin binding,"[1]; Tam Log[M] -6, + 5 μM Nb6",3.3% and 4.3% and 2.7%
same,[3H]prazosin binding,[1]; Tam Log[M] -6,4.541% and 3.809% and 4.395%
same,[3H]prazosin binding,"[1]; Tam Log[M] -7, + 5 μM Nb6",48.154% and 49.4541% and 47.454%
same,[3H]prazosin binding,[1]; Tam Log[M] -7,39.4775% and 27.2705% and 36.2061%
same,[3H]prazosin binding,"[1]; Tam Log[M] -8, + 5 μM Nb6",86.9072% and 94.5245% and 104.442%
same,[3H]prazosin binding,[1]; Tam Log[M] -8,82.3975% and 81.5186% and 80.0537%
same,[3H]prazosin binding,"[1]; Tam Log[M] -9, + 5 μM Nb6",108.742% and 93.5245% and 98.1248%
same,[3H]prazosin binding,[1]; Tam Log[M] -9,91.626% and 91.1865%
same,[3H]prazosin binding,"[1]; Tam Log[M] -10, + 5 μM Nb6",97.6581% and 106.126% and 95.8247%
same,[3H]prazosin binding,[1]; Tam Log[M] -10,84.8877% and 109.009% and 95.459%
same,[3H]prazosin binding,"[1]; Tam Log[M] -11, + 5 μM Nb6",98.7416% and 100.042% and 78.5899%
same,[3H]prazosin binding,[1]; Tam Log[M] -11,106.152% and 96.4844% and 97.3633%
B1,Ki,[2],41 µM
same,Ki,[3],6.4 µM
B2,Nb29-expressing yeast cells bound to α1AAR,"[4]; 500 μM Noradrenaline, α1AAR 4 nM",4.281% and 5.07% and 1.08%
same,Nb29-expressing yeast cells bound to α1AAR,"[4]; 500 μM Noradrenaline, α1AAR 16 nM",4.4164% and 6.158% and 1.447%
same,Nb29-expressing yeast cells bound to α1AAR,"[4]; 500 μM Noradrenaline, α1AAR 64 nM",6.534% and 6.061% and 1.603%
same,Nb29-expressing yeast cells bound to α1AAR,"[4]; 500 μM Oxymetazoline, α1AAR 64 nM",56.0554% and 29.8113% and 58.3201%
same,Nb29-expressing yeast cells bound to α1AAR,"[4]; 500 μM Oxymetazoline, α1AAR 256 nM",56.0831% and 53.0792% and 88.1579%
same,Nb29-expressing yeast cells bound to α1AAR,"[4]; 500 μM Phentolamine, α1AAR 4 nM",4.281% and 2.134% and 0.9772%
same,Nb29-expressing yeast cells bound to α1AAR,"[4]; 500 μM Phentolamine, α1AAR 16 nM",4.4164% and 5.525% and 0.626%
same,Nb29-expressing yeast cells bound to α1AAR,"[4]; 500 μM Phentolamine, α1AAR 64 nM",6.534% and 6.745% and 1.138%
same,Nb29-expressing yeast cells bound to α1AAR,"[4]; 500 μM Tam, α1AAR 4 nM",1.7094% and 4.412% and 4.11%
same,Nb29-expressing yeast cells bound to α1AAR,"[4]; 500 μM Tam, α1AAR 16 nM",2.954% and 4.451% and 4.373%
same,Nb29-expressing yeast cells bound to α1AAR,"[4]; 500 μM Tam, α1AAR 64 nM",5.7377% and 5.491% and 6.25%
same,Nb29-expressing yeast cells bound to α1AAR,"[4]; 500 μM Tam, α1AAR 256 nM",3.361% and 11.8841% and 12.7329%
same,Bmax,[4]; Apo α1AAR,35.8 ± 25.7%
same,Kd,[4]; Apo α1AAR,0.209 ± 0.288 µM
same,Nb29-expressing yeast cells bound to α1AAR,"[4]; Apo, α1AAR 4 nM",4.848% and 6.304% and 2.077%
same,Nb29-expressing yeast cells bound to α1AAR,"[4]; Apo, α1AAR 16 nM",4.142% and 4.886% and 1.136%
same,Bmax,[4]; α1AAR + 500 μM noradrenaline,10.9 ± 3.4%
same,Bmax,[4]; α1AAR + 500 μM oxymetazoline,75.5 ± 13.8%
same,Bmax,[4]; α1AAR + 500 μM phentolamine,24.8 ± 4.0%
same,Bmax,[4]; α1AAR + 500 μM tamsulosin,8.90 ± 1.8%
B3,effect on [3H]prazosin binding,[1],enhancement
same,Normalized [3H]prazosin-binding,[1]; with 5 μM Nb6,182.818% and 184.467% and 175.395%
